From patent US20170101454A1 (Novo Nordisk, published 2017)
Starred links: 1 amine or outer side, 2 acyl side, 3 side chain; linkers in the order of their positions; H or OH if unused. Non-standard residues stand in square brackets, D forms with d. Groups on a side chain read outwards from the residue. No end group written: not given here. *: point of attachment. C18 diacid = O=C(O)CCCCCCCCCCCCCCCCC(=O)*; γGlu = O=C(O)[C@H](CCC(=O)[*:2])N[*:1]; Ac4c = NC1(C(=O)O)CCC1; AEEA = NCCOCCOCC(=O)O; Aib = CC(C)(N)C(=O)O

B1: N^ε28-[(4S)-4-carboxy-4-[[(4S)-4-carboxy-4-[[2-[2-[2-[[2-[2-[2-[[(4S)-4-carboxy-4-[[(4S)-4-carboxy-4-(17-carboxyheptadecanoylamino)butanoyl]amino]butanoyl]amino … (peptide)
peptide: H[Ac4c]QGTFTSDISKYLESRRAREFVQWLIK([γGlu-γGlu-AEEA-AEEA-γGlu-γGlu-C18 diacid])T-NH2
modifications: N-terminus assumed
SMILES: CC[C@H](C)[C@H](NC(=O)[C@H](CC(=O)O)NC(=O)[C@H](CO)NC(=O)[C@@H](NC(=O)[C@H](Cc1ccccc1)NC(=O)[C@@H](NC(=O)CNC(=O)[C@H](CCC(N)=O)NC(=O)C1(NC(=O)[C@@H](N)Cc2c[nH]cn2)CCC1)[C@@H](C)O)[C@@H](C)O)C(=O)N[C@@H](CO)C(=O)N[C@@H](CCCCN)C(=O)N[C@@H](Cc1ccc(O)cc1)C(=O)N[C@@H](CC(C)C)C(=O)N[C@@H](CCC(=O)O)C(=O)N[C@@H](CO)C(=O)N[C@@H](CCCNC(=N)N)C(=O)N[C@@H](CCCNC(=N)N)C(=O)N[C@@H](C)C(=O)N[C@@H](CCCNC(=N)N)C(=O)N[C@@H](CCC(=O)O)C(=O)N[C@@H](Cc1ccccc1)C(=O)N[C@H](C(=O)N[C@@H](CCC(N)=O)C(=O)N[C@@H](Cc1c[nH]c2ccccc12)C(=O)N[C@@H](CC(C)C)C(=O)N[C@H](C(=O)N[C@@H](CCCCNC(=O)CC[C@H](NC(=O)CC[C@H](NC(=O)COCCOCCNC(=O)COCCOCCNC(=O)CC[C@H](NC(=O)CC[C@H](NC(=O)CCCCCCCCCCCCCCCCC(=O)O)C(=O)O)C(=O)O)C(=O)O)C(=O)O)C(=O)N[C@H](C(N)=O)[C@@H](C)O)[C@@H](C)CC)C(C)C
notes: also called Chem. 26; Chem 26
B2: N^ε29-[(4S)-4-carboxy-4-[[(4S)-4-carboxy-4-[[2-[2-[2-[[2-[2-[2-[[(4S)-4-carboxy-4-(17-carboxyheptadecanoylamino)butanoyl]amino]ethoxy]ethoxy]acetyl]amino]ethoxy … (peptide)
peptide: H[Aib]QGTFTSDLSKYLDARRAREFVQWLINK([γGlu-γGlu-AEEA-AEEA-γGlu-C18 diacid])-NH2
modifications: N-terminus assumed
SMILES: CC[C@H](C)[C@H](NC(=O)[C@H](CC(C)C)NC(=O)[C@H](Cc1c[nH]c2ccccc12)NC(=O)[C@H](CCC(N)=O)NC(=O)[C@@H](NC(=O)[C@H](Cc1ccccc1)NC(=O)[C@H](CCC(=O)O)NC(=O)[C@H](CCCNC(=N)N)NC(=O)[C@H](C)NC(=O)[C@H](CCCNC(=N)N)NC(=O)[C@H](CCCNC(=N)N)NC(=O)[C@H](C)NC(=O)[C@H](CC(=O)O)NC(=O)[C@H](CC(C)C)NC(=O)[C@H](Cc1ccc(O)cc1)NC(=O)[C@H](CCCCN)NC(=O)[C@H](CO)NC(=O)[C@H](CC(C)C)NC(=O)[C@H](CC(=O)O)NC(=O)[C@H](CO)NC(=O)[C@@H](NC(=O)[C@H](Cc1ccccc1)NC(=O)[C@@H](NC(=O)CNC(=O)[C@H](CCC(N)=O)NC(=O)C(C)(C)NC(=O)[C@@H](N)Cc1c[nH]cn1)[C@@H](C)O)[C@@H](C)O)C(C)C)C(=O)N[C@@H](CC(N)=O)C(=O)N[C@@H](CCCCNC(=O)CC[C@H](NC(=O)CC[C@H](NC(=O)COCCOCCNC(=O)COCCOCCNC(=O)CC[C@H](NC(=O)CCCCCCCCCCCCCCCCC(=O)O)C(=O)O)C(=O)O)C(=O)O)C(N)=O
notes: also called Chem. 21; Chem 21
B3: N^ε29-[(4S)-4-carboxy-4-[[(4S)-4-carboxy-4-[[2-[2-[2-[[2-[2-[2-[[(4S)-4-carboxy-4-(17-carboxyheptadecanoylamino)butanoyl]amino]ethoxy]ethoxy]acetyl]amino]ethoxy … (peptide)
peptide: H[Aib]QGTFTSDLSKYLDARRARDFVQWLISK([γGlu-γGlu-AEEA-AEEA-γGlu-C18 diacid])-NH2
modifications: N-terminus assumed
SMILES: CC[C@H](C)[C@H](NC(=O)[C@H](CC(C)C)NC(=O)[C@H](Cc1c[nH]c2ccccc12)NC(=O)[C@H](CCC(N)=O)NC(=O)[C@@H](NC(=O)[C@H](Cc1ccccc1)NC(=O)[C@H](CC(=O)O)NC(=O)[C@H](CCCNC(=N)N)NC(=O)[C@H](C)NC(=O)[C@H](CCCNC(=N)N)NC(=O)[C@H](CCCNC(=N)N)NC(=O)[C@H](C)NC(=O)[C@H](CC(=O)O)NC(=O)[C@H](CC(C)C)NC(=O)[C@H](Cc1ccc(O)cc1)NC(=O)[C@H](CCCCN)NC(=O)[C@H](CO)NC(=O)[C@H](CC(C)C)NC(=O)[C@H](CC(=O)O)NC(=O)[C@H](CO)NC(=O)[C@@H](NC(=O)[C@H](Cc1ccccc1)NC(=O)[C@@H](NC(=O)CNC(=O)[C@H](CCC(N)=O)NC(=O)C(C)(C)NC(=O)[C@@H](N)Cc1c[nH]cn1)[C@@H](C)O)[C@@H](C)O)C(C)C)C(=O)N[C@@H](CO)C(=O)N[C@@H](CCCCNC(=O)CC[C@H](NC(=O)CC[C@H](NC(=O)COCCOCCNC(=O)COCCOCCNC(=O)CC[C@H](NC(=O)CCCCCCCCCCCCCCCCC(=O)O)C(=O)O)C(=O)O)C(=O)O)C(N)=O
notes: also called Chem. 27; Chem 27
B4: N^ε28-[(4S)-4-carboxy-4-[[(4S)-4-carboxy-4-[[2-[2-[2-[[2-[2-[2-[[(4S)-4-carboxy-4-[[(4S)-4-carboxy-4-(17-carboxyheptadecanoylamino)butanoyl]amino]butanoyl]amino … (peptide)
peptide: H[Aib]QGTFTSDLSKYLESRRAREFVQWLIK([γGlu-γGlu-AEEA-AEEA-γGlu-γGlu-C18 diacid])T-NH2
modifications: N-terminus assumed
SMILES: CC[C@H](C)[C@H](NC(=O)[C@H](CC(C)C)NC(=O)[C@H](Cc1c[nH]c2ccccc12)NC(=O)[C@H](CCC(N)=O)NC(=O)[C@@H](NC(=O)[C@H](Cc1ccccc1)NC(=O)[C@H](CCC(=O)O)NC(=O)[C@H](CCCNC(=N)N)NC(=O)[C@H](C)NC(=O)[C@H](CCCNC(=N)N)NC(=O)[C@H](CCCNC(=N)N)NC(=O)[C@H](CO)NC(=O)[C@H](CCC(=O)O)NC(=O)[C@H](CC(C)C)NC(=O)[C@H](Cc1ccc(O)cc1)NC(=O)[C@H](CCCCN)NC(=O)[C@H](CO)NC(=O)[C@H](CC(C)C)NC(=O)[C@H](CC(=O)O)NC(=O)[C@H](CO)NC(=O)[C@@H](NC(=O)[C@H](Cc1ccccc1)NC(=O)[C@@H](NC(=O)CNC(=O)[C@H](CCC(N)=O)NC(=O)C(C)(C)NC(=O)[C@@H](N)Cc1c[nH]cn1)[C@@H](C)O)[C@@H](C)O)C(C)C)C(=O)N[C@@H](CCCCNC(=O)CC[C@H](NC(=O)CC[C@H](NC(=O)COCCOCCNC(=O)COCCOCCNC(=O)CC[C@H](NC(=O)CC[C@H](NC(=O)CCCCCCCCCCCCCCCCC(=O)O)C(=O)O)C(=O)O)C(=O)O)C(=O)O)C(=O)N[C@H](C(N)=O)[C@@H](C)O
notes: also called Chem. 25; Chem 25

Key:
human GLP-1 receptor [1] = target: T1, human GLP-1 receptor (human, UniProt P43220 24-463); assay: displacement of [125I]-GLP-1-(7-36)NH2 from BHK membranes with human GLP-1R, SPA, no serum albumin
T1 construct: whole, on cells; reporter assay used whole cells

human glucagon receptor [2] = target: T2, human glucagon receptor (human, UniProt P47871 26-477); assay: cell-based or functional assay
human GLP-1 receptor [3] = target: T1, human GLP-1 receptor; assay: cell-based or functional assay
human glucagon receptor [4] = target: T2, human glucagon receptor; assay: displacement of [125I]-glucagon from BHK membranes with human glucagon receptor, SPA, no serum albumin

T2 sequence (P47871 26-477): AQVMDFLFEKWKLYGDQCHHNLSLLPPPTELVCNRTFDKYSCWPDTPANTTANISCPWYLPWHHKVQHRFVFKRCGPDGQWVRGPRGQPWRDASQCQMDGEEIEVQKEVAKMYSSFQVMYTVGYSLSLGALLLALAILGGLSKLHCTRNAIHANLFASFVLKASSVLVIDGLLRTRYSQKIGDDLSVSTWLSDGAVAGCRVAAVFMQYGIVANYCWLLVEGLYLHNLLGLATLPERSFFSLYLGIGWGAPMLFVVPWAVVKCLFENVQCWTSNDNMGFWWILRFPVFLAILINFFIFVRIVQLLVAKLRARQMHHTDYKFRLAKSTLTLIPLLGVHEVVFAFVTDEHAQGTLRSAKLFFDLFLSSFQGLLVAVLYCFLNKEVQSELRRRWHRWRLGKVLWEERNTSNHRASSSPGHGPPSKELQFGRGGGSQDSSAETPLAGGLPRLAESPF

Binder	IC50 (human GLP-1 receptor [1]) [nM]	GlucagonR EC50 (pM), [Assay (I)(b)], CRE luciferase reporter, BHK cells (human glucagon receptor [2]) [pM]	GLP-1R EC50 (pM) [Assay (I)(a)], CRE luciferase reporter, BHK cells (human GLP-1 receptor [3]) [pM]	IC50 (human glucagon receptor [4]) [nM]
B1	0.4	42	2	10.1
B2	0.1	31	3	8.7
B3	0.2	66	3	19.1
B4	0.1	52	2	11.2
